Source: US12138315 (Daiichi Sankyo, dated 2024)

T1: human CD37 protein (human, UniProt P11049 1-281)
T1 construct: Four-pass transmembrane tetraspanin
T1 sequence: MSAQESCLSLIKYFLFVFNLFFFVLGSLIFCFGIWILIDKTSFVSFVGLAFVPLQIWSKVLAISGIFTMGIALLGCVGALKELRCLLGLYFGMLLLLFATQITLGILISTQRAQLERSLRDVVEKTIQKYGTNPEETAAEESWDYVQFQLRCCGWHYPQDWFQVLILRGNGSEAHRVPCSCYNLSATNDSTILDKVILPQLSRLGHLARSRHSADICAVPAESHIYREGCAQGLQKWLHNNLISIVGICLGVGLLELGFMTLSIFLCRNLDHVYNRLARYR


Molecular target: T1, human CD37 protein
Assay: flow cytometry on OCI-LY7 cells, FITC anti-human IgG Fc secondary
Description: 4)-1 Evaluation of Binding Activity of Humanized Anti-CD37 Antibody-Drug Conjugate The binding activity of the four antibody-drug conjugates (clone names: hmAb-H11L11-DXd, hmAb-H541L11-DXd, hmAb-H551L11-DXd, and hmAb-H11aL11-DXd) produced in Example 2 was evaluated by flow cytometry. CD37-positive human diffuse large B-cell lymphoma cell line OCI-LY7 (DSMZ) cultured in IMDM medium supplemented with 20% FBS under conditions of 37° C. and 5% CO_2 were recovered and centrifuged. After removal of the supernatant, the cells were suspended by the addition of each of the four antibody-drug conjugates or a negative control antibody-drug conjugate (hmAb-IgG1-DXd) produced using human IgG at each concentration. The cells were left standing at 4° C. for 1 hour. The cells were washed twice with PBS supplemented with 5% FBS, and then suspended by the addition of FLUORESCEIN (FITC)-AffiniPure F(ab')2 Fragment Goat Anti-Human IgG, Fcγ Fragment Specific (Jackson ImmunoResearch Laboratories, Inc.) that had been 100-fold diluted with PBS supplemented with 5% FBS. The cells were left standing at 4° C. for 30 minutes. The cells were washed twice with PBS supplemented with 5% FBS, followed by detection using a flow cytometer (BD LSRFortessa TM X-20, BD Biosciences). The data was analyzed using FlowJo (Tree Star, Inc.). In FIG. 6, the abscissa depicts antibody concentration (μg/ml), and the ordinate depicts the amount of the antibody bound by MFI (mean fluorescence intensity).

| Binder | binding result |
| --- | --- |
| hmAb-H11L11-DXd (antibody, V domains shown, drug linker on sulfhydryl groups of reduced interchain disulfide cysteines; positions not given; drug linker (maleimidocaproyl-GGFG-DXd, exatecan derivative) on sulfhydryl groups of reduced interchain disulfide cysteines by thioether bond; average number of conjugated drug molecules per antibody 7.4 to 7.7 (common procedure F); positions not given, also called hmAb-H11L11-ADC) VH: EVQLVQSGAEVKKPGASVKVSCKASGYSFTDYNMYWVRQAPGQSLEWMGYIDPYNGDTTYNQKFQGRVTITADTSTSTAYMELSSLRSEDTAVYYCARSPYGHYAMDYWGQGTLVTVSS VL: DIQMTQSPSSLSASVGDRVTITCKASQDVSTAVDWYQQKPGKAPKLLINWASTRHTGVPSRFSGSGSGTDFTLTISSLQPEDFATYYCRQHYSTPFTFGQGTKVEIKR | binds |
| hmAb-H11L11 (antibody, human IgG1, kappa, V domains shown, Unconjugated humanized IgG1 kappa antibody derived from mouse HH1; also called anti-CD37 humanized antibody having hmAb-H11 as a heavy chain and hmAb-L11 as a light chain) VH: EVQLVQSGAEVKKPGASVKVSCKASGYSFTDYNMYWVRQAPGQSLEWMGYIDPYNGDTTYNQKFQGRVTITADTSTSTAYMELSSLRSEDTAVYYCARSPYGHYAMDYWGQGTLVTVSS VL: DIQMTQSPSSLSASVGDRVTITCKASQDVSTAVDWYQQKPGKAPKLLINWASTRHTGVPSRFSGSGSGTDFTLTISSLQPEDFATYYCRQHYSTPFTFGQGTKVEIKR | binds |
| hmAb-H11aL11 (antibody, human IgG1, kappa, V domains shown, Unconjugated humanized IgG1 kappa antibody; also called anti-CD37 humanized antibody having hmAb-H11a as a heavy chain and hmAb-L11 as a light chain) VH: EVQLVQSGAEVKKPGASVKVSCKASGYSFTDYNMYWVRQAPGQSLEWMGYIDPYNGDTTYNQKFQGRVTITADKSKSTAYMELSSLRSEDTAVYYCARSPYGHYAMDYWGQGTLVTVSS VL: DIQMTQSPSSLSASVGDRVTITCKASQDVSTAVDWYQQKPGKAPKLLINWASTRHTGVPSRFSGSGSGTDFTLTISSLQPEDFATYYCRQHYSTPFTFGQGTKVEIKR | binds |
| hmAb-H551L11 (antibody, human IgG1, kappa, V domains shown, Unconjugated humanized IgG1 kappa antibody; also called anti-CD37 humanized antibody having hmAb-H551 as a heavy chain and hmAb-L11 as a light chain) VH: EVQLVQSGAEVKKPGASVKVSCKASGYSFTDYNMYWVRQAPGQSLEWMGYIDPYNGDTTYNQKFQGRVTMTRDTSSSTAYMELSRLRSDDTAVYYCARSPYGHYAMDYWGQGTTVTVSS VL: DIQMTQSPSSLSASVGDRVTITCKASQDVSTAVDWYQQKPGKAPKLLINWASTRHTGVPSRFSGSGSGTDFTLTISSLQPEDFATYYCRQHYSTPFTFGQGTKVEIKR | binds |
| hmAb-H541L11-DXd (antibody, human IgG1, kappa, V domains shown, drug linker on sulfhydryl groups of reduced interchain disulfide cysteines; positions not given; drug linker (maleimidocaproyl-GGFG-DXd, exatecan derivative) on sulfhydryl groups of reduced interchain disulfide cysteines by thioether bond; average number of conjugated drug molecules per antibody 7.8 (common procedure F); positions not given, also called hmAb-H541L11-ADC) VH: EVQLVQSGAEVKKPGASVKVSCKASGYSFTDYNMYWVRQAPGQSLEWMGYIDPYNGDTTYNQKFQGRVTMTRDTSISTAYMELSRLRSDDTAVYYCARSPYGHYAMDYWGQGTTVTVSS VL: DIQMTQSPSSLSASVGDRVTITCKASQDVSTAVDWYQQKPGKAPKLLINWASTRHTGVPSRFSGSGSGTDFTLTISSLQPEDFATYYCRQHYSTPFTFGQGTKVEIKR | binds |
| hmAb-H551L11-DXd (antibody, human IgG1, kappa, V domains shown, drug linker on sulfhydryl groups of reduced interchain disulfide cysteines; positions not given; drug linker (maleimidocaproyl-GGFG-DXd, exatecan derivative) on sulfhydryl groups of reduced interchain disulfide cysteines by thioether bond; average number of conjugated drug molecules per antibody 7.8 (common procedure F); positions not given, also called hmAb-H551L11-ADC) VH: EVQLVQSGAEVKKPGASVKVSCKASGYSFTDYNMYWVRQAPGQSLEWMGYIDPYNGDTTYNQKFQGRVTMTRDTSSSTAYMELSRLRSDDTAVYYCARSPYGHYAMDYWGQGTTVTVSS VL: DIQMTQSPSSLSASVGDRVTITCKASQDVSTAVDWYQQKPGKAPKLLINWASTRHTGVPSRFSGSGSGTDFTLTISSLQPEDFATYYCRQHYSTPFTFGQGTKVEIKR | binds |
| hmAb-H11aL11-DXd (antibody, human IgG1, kappa, V domains shown, drug linker on sulfhydryl groups of reduced interchain disulfide cysteines; positions not given; drug linker (maleimidocaproyl-GGFG-DXd, exatecan derivative) on sulfhydryl groups of reduced interchain disulfide cysteines by thioether bond; average number of conjugated drug molecules per antibody 7.6 (common procedure F); positions not given, also called hmAb-H11aL11-ADC) VH: EVQLVQSGAEVKKPGASVKVSCKASGYSFTDYNMYWVRQAPGQSLEWMGYIDPYNGDTTYNQKFQGRVTITADKSKSTAYMELSSLRSEDTAVYYCARSPYGHYAMDYWGQGTLVTVSS VL: DIQMTQSPSSLSASVGDRVTITCKASQDVSTAVDWYQQKPGKAPKLLINWASTRHTGVPSRFSGSGSGTDFTLTISSLQPEDFATYYCRQHYSTPFTFGQGTKVEIKR | binds |
| hmAb-H541L11 (antibody, human IgG1, kappa, V domains shown, Unconjugated humanized IgG1 kappa antibody; also called anti-CD37 humanized antibody having hmAb-H541 as a heavy chain and hmAb-L11 as a light chain) VH: EVQLVQSGAEVKKPGASVKVSCKASGYSFTDYNMYWVRQAPGQSLEWMGYIDPYNGDTTYNQKFQGRVTMTRDTSISTAYMELSRLRSDDTAVYYCARSPYGHYAMDYWGQGTTVTVSS VL: DIQMTQSPSSLSASVGDRVTITCKASQDVSTAVDWYQQKPGKAPKLLINWASTRHTGVPSRFSGSGSGTDFTLTISSLQPEDFATYYCRQHYSTPFTFGQGTKVEIKR | binds |
